± gives the uncertainty stated by the source.
Assay: self-splicing fitness, log relative to wild type (ln ratio); higher = more splicing; Tetrahymena group I intron in knt gene, E. coli kanamycin selection, DiMSum; sequences stand for … in CUCUCU…GGAGGGAAAAGUUAUCAGGCAUGCACCUGGUAGCUAGUCUUUAAACCAAUAGAUUGCAUCGGUUUAAAAGGCAAGACCGUCAAAUUGCGGGAAAGGGGUCAACAGCCGUUCAGUACCAAGUCUCAGGGGAAACUUUGAGAUGGCCUUGCAAAGGGUAUGGUAAUAAGCUGACGGACAUGGUCCUAACCACGCAGCCAAGUCCUAAGUCAACAGAUCUUCUGUUGAUAUGGAUGCAGUUCACAGACUAAAUGUCGGUCGGGGAAGAUGUAUUCUUCUCAUAAGAUAUAGUCGGACCUCUCCUUAAUGGGAGCUAGCGGAUGAAGUGAUGCAACACUGGAGCCGCUGGGAACUAAUUUGUAUGCGAAAGUAUAUUGAUUAGUUUUGGAGUACUCGUGGUCG
Outline: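 Pooled colonies went to amplicon sequencing on an Illumina HiSeq 2500 after six replicate transformations. The plates were LB agar with 100 μg/mL carbenicillin, 50 μM IPTG and 0.2% rhamnose, with or without 25 μg/mL kanamycin, incubated overnight at 37°C or 30°C. The E. coli BL21(DE3) library had all eight P1ex-region intron nucleotides randomised, the intron placed in the knt kanamycin-resistance gene on pET-22b(+). DiMSum fitness is the error-weighted combination of replicate fold changes, kanamycin against none, normalised to wild type.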

Sequence | self-splicing fitness (ln) (30 °C) | self-splicing fitness (ln) (37 °C)
AACGAGCAAUAUUACGCAUU | -1.24 ± 0.12 | -2.9 ± 0.24
AAUAAGCAAUAUUACGCAAG | -1.77 ± 0.1 | -1.59 ± 0.14
GAAUAGCAAUAUUACGAUCG | 1.29 ± 0.19 | -0.178 ± 0.27
GUCCAGCAAUAUUACGGACG | -2.99 ± 0.26 | -0.833 ± 0.18
CUGUAGCAAUAUUACGCGGA | -2.92 ± 0.23 | -2.91 ± 0.24
UCUUAGCAAUAUUACGUCUU | -3.21 ± 0.32 | -3 ± 0.27
AGACAGCAAUAUUACGCACU | -0.646 ± 0.12 | -0.203 ± 0.13
AGCCAGCAAUAUUACGAUUC | -2.67 ± 0.22 | -2.49 ± 0.3
UAAGAGCAAUAUUACGCGCG | -1.38 ± 0.24 | -1.35 ± 0.3
GACGAGCAAUAUUACGCUUG | -4 ± 0.26 | -1.27 ± 0.16
AUCCAGCAAUAUUACGAGGG | -2.9 ± 0.1 | -1.49 ± 0.11
CCCUAGCAAUAUUACGUUGC | -3.75 ± 0.29 | -1.82 ± 0.18
CGGCAGCAAUAUUACGUGUU | -3.41 ± 0.13 | -1.95 ± 0.13
UAAUAGCAAUAUUACGUUCG | -0.563 ± 0.11 | 0.133 ± 0.12
CGCUAGCAAUAUUACGACUG | -0.448 ± 0.05 | 0.456 ± 0.068
CUACAGCAAUAUUACGGCAA | -3.24 ± 0.24 | -2.79 ± 0.23
UCAUAGCAAUAUUACGGAAG |  | -2.19 ± 0.33
UGGUAGCAAUAUUACGUGUA | -2.09 ± 0.13 | -0.721 ± 0.1
CUGAAGCAAUAUUACGAAUG | -0.544 ± 0.083 | 0.252 ± 0.12

Sequence | self-splicing fitness (ln) (30 °C) | self-splicing fitness (ln) (37 °C)
UUGAAGCAAUAUUACGCAGA | -0.643 ± 0.13 | 0.228 ± 0.11
CGAUAGCAAUAUUACGGGCU |  | 0.128 ± 0.17
AUGGAGCAAUAUUACGCUUU |  | -1.37 ± 0.46
AACUAGCAAUAUUACGCAAC | -3.49 ± 0.21 | -2.08 ± 0.18
UUCUAGCAAUAUUACGUGAG | -0.386 ± 0.06 | -0.345 ± 0.11
UUUUAGCAAUAUUACGACGC | -2.17 ± 0.31 | -1.56 ± 0.28
UACGAGCAAUAUUACGUUGA | -3.2 ± 0.24 | -2.73 ± 0.23
UACCAGCAAUAUUACGUUCA | -0.401 ± 0.06 | 0.27 ± 0.08
CAUCAGCAAUAUUACGAGUA | -2.12 ± 0.12 | -1.47 ± 0.095
UCACAGCAAUAUUACGUCUG | -3.02 ± 0.13 | -0.735 ± 0.11
CAUAAGCAAUAUUACGGGUA | -3.36 ± 0.21 | -2.64 ± 0.17
UUCCAGCAAUAUUACGGUCA | -0.23 ± 0.084 | 0.239 ± 0.1
AGGAAGCAAUAUUACGGCUU | -3.74 ± 0.34 | -1.32 ± 0.17
AAUCAGCAAUAUUACGCGAC | -1.17 ± 0.085 | -1.96 ± 0.15
GAAAAGCAAUAUUACGGGGA | -1.38 ± 0.16 | -2.44 ± 0.23
GCUAAGCAAUAUUACGCACA | -0.938 ± 0.098 | -0.709 ± 0.11
UGGCAGCAAUAUUACGACUC | -1 ± 0.1 | -1.1 ± 0.12
GACGAGCAAUAUUACGGCAC | -2.53 ± 0.18 | -1.62 ± 0.16
UCCAAGCAAUAUUACGCCCU | -2.49 ± 0.24 | -1.32 ± 0.26

Reference: the supplement of paper PMC7877785
